Laboratory results taken from PMC7331920.
pKd: −log10 of the molar value.

Tests used:
JADE1 PHD finger 1 = test: fluorescence polarisation
[1] = biological target: PHF14 PHD finger 1 (GST-fusion protein); test: fluorescence polarisation

pKd (JADE1 PHD finger 1) | pKd [1] | Substance
< 4.00 | – | H3K4norleucine peptide
< 4.00 | – | H3K4me3 peptide
4.49 | 5.15 | H3K4me0 peptide (unmodified / wild-type H3 tail peptide)
